Test results reported in article PMC5458078, “Global mapping of CARM1 substrates defines enzyme specificity and substrate recognition” (Nature Communications, 2017).

Key:
[1] = system: HEK293T CARM1 KO cells; assay: Rescue of endogenous BAF155 and MED12 methylation, transient transfection, western blot; assay type: cell-based; conditions: transient expression in HEK293T CARM1 KO cells
Method: Next, we transiently transfected FL and the two aforementioned CARM1 truncations in HEK293T CARM1 KO cells and measured substrate methylation by western blotting with ADMA antibodies.
Cells were collected by trypsinization, washed with Dulbecco's phosphate buffer saline (Life Technologies, Carlsbad, CA) and lysed by suspension in lysis buffer (50 mM Tris-HCl pH 8.0, 150 mM NaCl, 10% glycerol, 0.5% Triton X-100 and 1 × protease inhibitor cocktail (Sigma-Aldrich)). After brief sonication followed by centrifugation, total protein was quantified using the BioRad Protein Assay (BioRad, Hercules, CA), and 20 μg protein was resolved by SDS–PAGE. Proteins were transferred to a nitrocellulose membrane for 1.5 h at 350 mA. Membranes were blocked with 5% nonfat milk at room temperature for 1 h and incubated overnight with diluted primary antibody at 4 °C. Membranes were then washed and incubated with HRP-conjugated secondary antibody for 1 h at room temperature. Signal was visualized by enhanced chemiluminescence reagents (Thermo Scientific, Rockford, IL) and X-ray film exposure followed by scanning and digitalization. Me-PABP1 and PABP1 antibodies, me-BAF155 antibody[20] and me-MED12 antibody[30] were generated previously in the Xu lab. FLAG antibody (catalogue #F7425) was purchased from Sigma and used at a dilution of 1:5,000; BAF155 antibody (sc-10756) was purchased from Santa Cruz and used at a dilution of 1:1,000; MED12 antibody (ab70842) was purchased from Abcam (Cambridge, MA) and used at 1:1,000 dilution.

[2] = system: total cell lysates derived from MCF7 CARM1 KO cells; assay: In vitro methylation of total cell lysates by recombinant CARM1 proteins, autoradiography; assay type: biochemical, human; conditions: 3H-SAM, 1–4 h, 30 °C
Method: The FL and N-terminal domain-deleted version of human CARM1 cDNAs, and other PRMT FL cDNAs were cloned into pFN21K Halo Tag CMV Flexi mammalian expression vector (Promega, Madison, WI) using the unique Sgfl and Pmel site[55]. To express the protein, DNA constructs were transiently transfected into HEK293T CARM1 KO cells in 15 cm dishes using transIT-LT1 reagent (Mirus Bio, Madison, WI) according to the manufacturer's protocol. Proteins were allowed to express for 48 h. Cell pellets were then collected and lysed in lysis buffer (50 mM HEPES, pH 7.5, 150 mM NaCl, 0.005% NP-40, 0.5 mM EDTA, supplemented with 1 × protease inhibitor cocktail before use). The cells were sonicated on ice using a Branson Sonifier 450 with a microtip at 35% amplitude (10 s on, 30 s off, 6 cycles). […] The resin was centrifuged at 3,000 r.p.m. for 5 min, and the supernatant containing the cleaved protein was collected and protein concentration was determined using the Bradford assay (Thermo Scientific, Rockford, IL). Protein purity was assessed by running SDS–PAGE and Coomassie Blue staining.
Purified recombinant enzyme and substrates were incubated in methylation buffer (50 mM Tris-HCl, pH 8.0, 100 mM NaCl and 0.5 mM EDTA) for 1–4 h at 30 °C in the presence of 1 μl radioactive S-adenosyl-L-[methyl-^3H] methionine. […] Protein methylation was detected by autoradiography.

[3] = system: MCF7 CARM1 KO cells; assay: Quantitative MS of ADMA-containing peptides in MCF7 CARM1 KO cells expressing CARM1 28-608 or CARM1 140-608, and in CARM1 KO; assay type: cell-based, human; conditions: stable CARM1 140–608 in MCF7 CARM1 KO cells; reference CARM1 28–608; three biological replicas
[4] = system: HEK293T CARM1 KO cells; assay: Total ADMA-containing proteins co-precipitated with FLAG-tagged CARM1, western blot; assay type: cell-based; conditions: FLAG IP probed with ADMA antibody; compared with CARM1 FL and CARM1 28–608
Source text: The structure of the N-terminal domain of CARM1 (residues 28–140) resembles those of the EVH1 domains, a subfamily of PH domains that bind proline-rich sequences. With our discovery that CARM1 substrates contain proline-rich motifs, we posited that the protein's N-terminal domain may be required for substrate recognition. To test this hypothesis, we generated three CARM1 constructs: one full-length (CARM1 FL) and two N-terminal truncations CARM1 28–608 and CARM1 140–608 (Fig. 3a). […] We transiently transfected the three FLAG-tagged CARM1 fusion constructs in HEK293T CARM1 KO cells. CARM1 was immunoprecipitated from all three cell lines using anti-FLAG M2 resin, and four known CARM1 substrates/interactors (that is, BAF155 (ref. [20]), MED12 (ref. [30]), PABP1 (ref. [36]) and NCOA3 (ref. [19])) and newly identified TET2 were detected by western blotting. […]
Cells were collected by trypsinization, washed with Dulbecco's phosphate buffer saline (Life Technologies, Carlsbad, CA) and lysed by suspension in lysis buffer (50 mM Tris-HCl pH 8.0, 150 mM NaCl, 10% glycerol, 0.5% Triton X-100 and 1 × protease inhibitor cocktail (Sigma-Aldrich)). After brief sonication followed by centrifugation, total protein was quantified using the BioRad Protein Assay (BioRad, Hercules, CA), and 20 μg protein was resolved by SDS–PAGE. […]

B1: CARM1 140–608: CARM1 140–608 lacks the first 140 residues encompassing the EVH1 domain (protein)
chain: RTEESSAVQYFQFYGYLSQQQNMMQDYVRTGTYQRAILQNHTDFKDKIVLDVGCGSGILSFFAAQAGARKIYAVEASTMAQHAEVLVKSNNLTDRIVVIPGKVEEVSLPEQVDIIISEPMGYMLFNERMLESYLHAKKYLKPSGNMFPTIGDVHLAPFTDEQLYMEQFTKANFWYQPSFHGVDLSALRGAAVDEYFRQPVVDTFDIRILMAKSVKYTVNFLEAKEGDLHRIEIPFKFHMLHSGLVHGLAFWFDVAFIGSIMTVWLSTAPTEPLTHWYQVRCLFQSPLFAKAGDTLSGTCLLIANKRQSYDISIVAQVDQTGSKSSNLLDLKNPFFRYTGTTPSPPPGSHYTSPSENMWNTGSTYNLSSGMAVAGMPTAYDLSSVIASGSSVGHNNLIPLANTGIVNHTHSRMGSIMSTGIVQGSSGAQGSGGGSTSAHYAVNSQFTMGGPAISMASPMSIPTNTMHYGS
modifications: left off: FLAG, end not stated, kept
notes: CARM1 140–608 lacks the first 140 residues encompassing the EVH1 domain
Methylation of endogenous BAF155 and MED12 [1]: failed to restore endogenous protein methylation | Total protein methylation of cell lysate [2]: substantial reduction of total protein methylation | Abundance of ADMA-containing peptides [3]: massive reduction in abundances of ADMA-containing peptides | Abundance of CARM1-interacting (ADMA-containing) proteins [4]: global decrease in abundance of CARM1-interacting proteins
